Reference: US20220332804A1 (CSL INNOVATION, published 2022)

Key:
Assay in all cases: SPR, antibody captured, C2 as analyte;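 also: biacore SPR at 37 °C, anti-C2 mAbs captured via goat anti-human IgG on CM5 chips, double-referenced sensorgrams fit to a 1:1 kinetic or steady-state model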
[1] = biological target: T1, human C2 K274A (human, UniProt P06681 21-752)
T1 sequence: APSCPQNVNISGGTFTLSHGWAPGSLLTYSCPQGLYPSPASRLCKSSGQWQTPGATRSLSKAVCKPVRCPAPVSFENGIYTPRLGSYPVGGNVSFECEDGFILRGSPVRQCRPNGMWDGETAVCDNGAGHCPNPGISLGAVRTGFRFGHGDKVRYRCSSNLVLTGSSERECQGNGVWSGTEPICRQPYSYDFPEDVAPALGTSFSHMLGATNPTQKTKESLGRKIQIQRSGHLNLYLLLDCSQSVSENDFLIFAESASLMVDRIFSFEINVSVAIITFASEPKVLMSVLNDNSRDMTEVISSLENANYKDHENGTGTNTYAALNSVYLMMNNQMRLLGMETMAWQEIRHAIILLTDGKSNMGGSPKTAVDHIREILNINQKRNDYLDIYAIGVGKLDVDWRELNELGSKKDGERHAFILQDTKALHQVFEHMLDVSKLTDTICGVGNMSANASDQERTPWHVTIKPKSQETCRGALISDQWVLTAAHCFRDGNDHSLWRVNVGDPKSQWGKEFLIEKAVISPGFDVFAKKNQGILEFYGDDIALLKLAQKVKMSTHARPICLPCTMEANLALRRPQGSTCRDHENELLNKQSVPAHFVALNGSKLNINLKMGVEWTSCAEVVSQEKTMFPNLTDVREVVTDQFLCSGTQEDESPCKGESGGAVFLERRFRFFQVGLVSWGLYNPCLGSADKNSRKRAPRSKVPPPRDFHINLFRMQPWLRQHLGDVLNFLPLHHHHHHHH

[2] = biological target: T2, human C2 K711A (human, UniProt P06681 21-752)
T2 sequence: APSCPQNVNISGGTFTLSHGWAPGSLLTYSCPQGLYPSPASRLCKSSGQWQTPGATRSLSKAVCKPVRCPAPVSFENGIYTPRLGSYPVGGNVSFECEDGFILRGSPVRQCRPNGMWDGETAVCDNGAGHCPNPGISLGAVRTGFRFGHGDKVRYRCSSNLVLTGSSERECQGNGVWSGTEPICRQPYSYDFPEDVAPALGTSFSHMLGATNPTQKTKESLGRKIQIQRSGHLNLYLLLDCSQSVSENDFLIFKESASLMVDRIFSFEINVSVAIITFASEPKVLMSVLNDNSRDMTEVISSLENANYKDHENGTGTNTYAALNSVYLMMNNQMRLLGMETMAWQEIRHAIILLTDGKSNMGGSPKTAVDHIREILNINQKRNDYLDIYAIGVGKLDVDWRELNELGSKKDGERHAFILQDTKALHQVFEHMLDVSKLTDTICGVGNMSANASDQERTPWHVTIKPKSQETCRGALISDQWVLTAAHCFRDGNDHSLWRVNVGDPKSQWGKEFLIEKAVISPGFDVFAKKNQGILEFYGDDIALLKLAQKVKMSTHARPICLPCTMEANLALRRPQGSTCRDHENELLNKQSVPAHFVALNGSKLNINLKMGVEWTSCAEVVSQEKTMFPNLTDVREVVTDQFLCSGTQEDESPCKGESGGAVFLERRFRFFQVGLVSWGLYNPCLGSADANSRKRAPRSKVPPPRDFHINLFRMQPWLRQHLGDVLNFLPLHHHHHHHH

[3] = biological target: T3, human C2 K443A (human, UniProt P06681 21-752)
T3 sequence: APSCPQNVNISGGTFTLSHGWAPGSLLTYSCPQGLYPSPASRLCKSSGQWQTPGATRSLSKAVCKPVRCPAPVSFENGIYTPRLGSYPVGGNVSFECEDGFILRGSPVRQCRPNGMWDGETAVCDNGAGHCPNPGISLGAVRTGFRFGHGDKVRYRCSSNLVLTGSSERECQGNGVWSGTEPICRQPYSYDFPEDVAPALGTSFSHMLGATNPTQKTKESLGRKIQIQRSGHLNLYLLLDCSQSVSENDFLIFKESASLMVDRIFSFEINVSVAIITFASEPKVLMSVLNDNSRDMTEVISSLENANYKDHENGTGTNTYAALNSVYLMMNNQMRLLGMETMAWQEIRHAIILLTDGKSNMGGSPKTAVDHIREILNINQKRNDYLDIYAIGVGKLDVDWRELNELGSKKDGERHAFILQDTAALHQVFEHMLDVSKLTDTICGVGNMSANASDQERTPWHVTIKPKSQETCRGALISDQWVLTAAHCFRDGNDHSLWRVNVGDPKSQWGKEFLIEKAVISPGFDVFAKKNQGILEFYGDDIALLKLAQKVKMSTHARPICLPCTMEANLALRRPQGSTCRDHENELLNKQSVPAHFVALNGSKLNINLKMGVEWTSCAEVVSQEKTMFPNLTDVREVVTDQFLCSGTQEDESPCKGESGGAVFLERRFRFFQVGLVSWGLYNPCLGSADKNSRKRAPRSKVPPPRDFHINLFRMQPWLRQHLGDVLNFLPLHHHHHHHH

[4] = biological target: T4, human C2 G677A (human, UniProt P06681 21-752)
T4 sequence: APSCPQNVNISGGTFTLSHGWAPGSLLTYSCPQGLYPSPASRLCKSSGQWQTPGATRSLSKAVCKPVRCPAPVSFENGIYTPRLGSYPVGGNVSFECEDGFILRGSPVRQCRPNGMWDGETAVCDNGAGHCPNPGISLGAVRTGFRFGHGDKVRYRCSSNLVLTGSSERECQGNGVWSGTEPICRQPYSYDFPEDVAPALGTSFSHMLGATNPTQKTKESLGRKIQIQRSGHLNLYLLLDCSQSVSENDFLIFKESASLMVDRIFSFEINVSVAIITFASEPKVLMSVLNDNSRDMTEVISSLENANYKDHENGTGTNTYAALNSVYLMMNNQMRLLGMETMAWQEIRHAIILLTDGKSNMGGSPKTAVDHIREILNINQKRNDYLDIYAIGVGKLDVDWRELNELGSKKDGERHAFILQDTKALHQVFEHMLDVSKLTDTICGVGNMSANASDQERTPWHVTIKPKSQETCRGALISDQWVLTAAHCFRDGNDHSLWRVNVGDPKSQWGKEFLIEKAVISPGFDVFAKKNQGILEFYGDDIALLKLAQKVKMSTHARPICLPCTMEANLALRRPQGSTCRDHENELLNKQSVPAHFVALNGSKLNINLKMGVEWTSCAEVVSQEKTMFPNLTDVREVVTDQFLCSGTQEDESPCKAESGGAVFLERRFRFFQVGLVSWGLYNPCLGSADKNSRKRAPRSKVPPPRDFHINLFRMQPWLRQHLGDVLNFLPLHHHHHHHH

B1: RF16-226 (antibody, human IgG4 S228P, lambda)
heavy: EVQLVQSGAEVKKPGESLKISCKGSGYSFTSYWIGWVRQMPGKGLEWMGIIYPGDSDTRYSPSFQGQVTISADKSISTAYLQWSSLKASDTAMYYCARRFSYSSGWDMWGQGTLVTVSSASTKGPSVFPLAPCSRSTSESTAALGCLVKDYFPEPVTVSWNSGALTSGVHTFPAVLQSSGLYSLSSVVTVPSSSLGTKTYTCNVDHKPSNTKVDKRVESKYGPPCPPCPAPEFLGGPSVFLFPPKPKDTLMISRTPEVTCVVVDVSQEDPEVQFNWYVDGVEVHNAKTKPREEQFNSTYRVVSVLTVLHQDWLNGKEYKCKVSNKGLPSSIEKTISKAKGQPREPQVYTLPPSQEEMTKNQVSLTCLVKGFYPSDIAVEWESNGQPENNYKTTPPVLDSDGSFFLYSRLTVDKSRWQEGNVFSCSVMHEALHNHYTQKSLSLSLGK
light: SYELTQPPSVSVSPGQTARITCSGDALTSKYVAWYQQKSGLAPLLVIYEDTRRPSGIPAKFSGSSSGSVATLTISGAHGDDEADYYCYSTDASGHQRVFGGGTKLTVLSQPKAAPSVTLFPPSSEELQANKATLVCLISDFYPGAVTVAWKADGSPVKAGVETTKPSKQSNNKYAASSYLSLTPEQWKSHRSYSCQVTHEGSTVEKTVAPTECS
notes: pH-dependent anti-C2 antibody from a phage display library; also called WT
[1]
  Kd: 291 nM
[2]
  Kd: 49.6 nM
[3]
  binding result: no binding
[4]
  Kd: 8.7 nM
